The text below walks through data of the supplement of paper PMC9170038.

The subject of this data set is MS2 coat protein. As to the kind of experiment: apparent KD of MS2 coat protein; designed switch direction (-1 OFF switch, 1 ON switch): 1; higher = weaker reporter binding. In outline: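 Apparent KD, taken as the median over clusters for each design, was obtained by curve-fitting normalised cluster fluorescence. Designed RNA switches had been transcribed on Illumina chips by stalled E. coli RNA polymerase and titrated with SNAP-549-labelled MS2 coat protein, doubling from 0.7 or 1.5 nM to 3 µM.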

Setting [1] is: Eterna round: R95, input ligand: FMN 200 uM.
Where [2] appears, read: Eterna round: R95, input ligand: microRNA oligo, concentration not stated.
Where [3] appears, read: Eterna round: R95, input ligand: none.
Setting [4] is: input ligand: microRNA oligo, concentration not stated.

In the case of “UCUUGGUUUUUGCUCGUUUUUUGUGUUGAACAUGAGGAUCACCCAUGUAUUGUACGGUCCAGUUUAGUAAUGGUCCA [JMF 7] (puzzle: Sensor for hsa-mir-208a)”, the “apparent KD of MS2 coat protein” value worked out at 0.0263 µM under setting [1], 0.0163 µM under setting [2] and 0.0278 µM under setting [3].
Take “UCUUGGUUUUUGCUCGUUUUUUGUGUUGAACAUGAGGAUCACCCAUGUAUUGUACGGUCCGAUUUAAUAAUGGUCCA [JMF 38] (puzzle: Sensor for hsa-mir-208a)”: the “apparent KD of MS2 coat protein” value came out at 0.0303 µM under setting [1], 0.0183 µM under setting [2] and 0.0324 µM under setting [3].
In the same order, the values of “UGCCAUAGUAUAUUGGUACGUGCUUUUUGACAUGAGGAUCACCCAUGUCCUCGUCAUAUGCGCAGUCCGUAGACUGC (puzzle: Sensor for hsa-mir-208a)” are 0.328 µM, 0.234 µM and 0.374 µM.
Consider “UGCUAGGAUAUCUUGAGGAUCACCCAGGAGAAGGAGCCAAGCUAGGAUAUCCUGAGGAUCACCCAGGAGAAGGAGCACAUACUC [pwkr ssNG3 DX 2xF5 +2xFMN.13] (Eterna round: R96, puzzle: Same State NG 3)”, for which the “apparent KD of MS2 coat protein” value reads like this: (input ligand: FMN 200 uM) 0.107 µM; under setting [4], 0.0596 µM; (input ligand: none) 0.102 µM.
For the sequence “UGCUUCAUGUAAGGAUAUGCAGCCGUUUCGGCUGCAGAAGGUACUAUAAUACAUGAGGAUCACCCAUGUCUCUCGCAUUGCGAG [salish99_SSng1_r04_301] (Eterna round: R96, puzzle: Same State NG 1)”, the “apparent KD of MS2 coat protein” value under setting [4] came out at 0.111 µM.
For the sequence “UGGCUCAGACGAGGAUAUGGUCAUGGCGCUUCGGCGCAUACAUGAGGAUCACCCAUGUAGGGUGAUCAGAAGGUGUCUGAGCCA [SSNG2/9-B2] (Eterna round: R96, puzzle: Same State NG 2)”, the “apparent KD of MS2 coat protein” value was 0.21 µM (input ligand: FMN 200 uM), 0.827 µM under setting [4] and 1.1 µM (input ligand: none).
In the same order, the values of “UGGCUCAGAGCAGGAUAUAUGUCUCGAGCUUCGGCUCGAGACAUGAGGAUCACCCAUGUAAUAACAUAGAAGGGCUCUGAGCCA [SSNG2/1-B2] (Eterna round: R96, puzzle: Same State NG 2)” are 0.0163 µM, 0.0417 µM and 0.0747 µM.
For the sequence “UGGCUCAGAGCAGGAUAUAUGUGGUCACAUGAGGAUCACCCAUGUCUCGAGCUUCGGCUCGAGGCAUAGAAGGGCUCUGAGCCA [SSNG2/5-B2] (Eterna round: R96, puzzle: Same State NG 2)”, the “apparent KD of MS2 coat protein” value (input ligand: FMN 200 uM) was 0.55 µM, the “apparent KD of MS2 coat protein” value under setting [4] worked out at 0.048 µM and the “apparent KD of MS2 coat protein” value (input ligand: none) turned out to be 0.0581 µM.
“UGGCUGGUGCUAGGAUAUACAUGAGGAAUCCUCGUAGAAGGAUCACGACAUGAGGAUCACCCAUGUAGCCGUCCGUAGACGGCU [salish99_SSNG1_r04_006] (Eterna round: R96, puzzle: Same State NG 1)”: the “apparent KD of MS2 coat protein” value (input ligand: FMN 200 uM) came to 1.93 µM, the “apparent KD of MS2 coat protein” value under setting [4] is 0.19 µM and the “apparent KD of MS2 coat protein” value (input ligand: none) amounted to 0.312 µM.
In the same order, the values of “UGGCUGGUGCUAGGAUAUGCAUGAGGCCUCCUCGUAGAAGGAGCACGACAUGAGGAUCACCCAUGUGGCCGUCCGUGGACGGCU [salish99_SSNG1_r04_014] (Eterna round: R96, puzzle: Same State NG 1)” are 0.0454 µM, 0.0449 µM and 0.0561 µM.
With “UGUCCAGCCUGAGCUGGACAAAAGCAUGUACAUGAGGAUCACCCAUGUUCAUGUACAAGCUUUUUGCUCGUCUUAAA [salish99_208a_r3_030] (puzzle: Sensor for hsa-mir-208a)”, the “apparent KD of MS2 coat protein” value under setting [1] is 0.325 µM, the “apparent KD of MS2 coat protein” value under setting [2] was found to be 0.0147 µM and the “apparent KD of MS2 coat protein” value under setting [3] is 0.37 µM.
In the same order, the values of “UGUCCAGCCUGAGCUGGACAAAAGCAUGUACAUGAGGAUCACCCAUGUUCAUGUACAAGCUUUUUGCUCGUCUUAUA [salish99_208a_r3_044] (puzzle: Sensor for hsa-mir-208a)” are 0.404 µM, 0.0138 µM and 0.415 µM.
For the sequence “UGUUGAAACUGAGGAUAUGGCGUGUGACGAAUGCCAGAAGGUAGUAGGAGCAACAUGAGGAUCACCCAUGUCCGGCGCAGACCC [Eternabot solution 16] (Eterna round: R96, puzzle: Same State NG 1)”, the “apparent KD of MS2 coat protein” value was 0.0856 µM (input ligand: FMN 200 uM), 0.0613 µM under setting [4] and 0.0713 µM (input ligand: none).
As for “UGUUGGAAGUGAGGAUAUGGGAAAGGAAGUGUACCAGAAGGCACAUCUAGCCGGAACAUGAGGAUCACCCAUGUACCACACUAC [PowerStrip SSNG 1.15] (Eterna round: R96, puzzle: Same State NG 1)”, the “apparent KD of MS2 coat protein” value turned out to be 0.128 µM (input ligand: FMN 200 uM), 0.0246 µM under setting [4] and 0.0307 µM (input ligand: none).
Take “UGUUGUAUUACAGGAUAUCUAGUAGUUUUAUUUAGAGAAGGGUAUUCACAUGAGGAUCACCCAUGUAUAUACGAGGAAGUUGUG [JMF's solution 36] (Eterna round: R96, puzzle: Same State NG 1)”: the “apparent KD of MS2 coat protein” value under setting [4] was 0.0297 µM.
For “UGUUGUAUUACAGGAUAUCUAGUAUUUUAAUUUAGAGAAGGGUAUUCACAUGAGGAUCACCCAUGUAUAUACGAGGAAGUUGUG [JMF's solution 43] (Eterna round: R96, puzzle: Same State NG 1)”, under setting [4], the “apparent KD of MS2 coat protein” value turned out to be 0.0386 µM.
Regarding “UUAAAACAUGAGGAUCACCCAUGUCAACAAAGUCGAGGAUAUGGGCAAAUAAAAUAAGAACCAGAAGGCGAAUAAU [salish99_SS1_r3_006] (puzzle: Same State 1)”, the “apparent KD of MS2 coat protein” value is 0.0382 µM under setting [1], 0.434 µM under setting [2] and 0.409 µM under setting [3].
For the sequence “UUAAUGAAGUAAGGAUAUACAUGAGGAUCACUCGUAGAAGGUACUAUACAUGAGGAUCACCCAUGUGCCGGUCAGAAGACUGGA [Mat - Same State NG 1 - JL mod - D5] (Eterna round: R96, puzzle: Same State NG 1)”, the “apparent KD of MS2 coat protein” value is, setting by setting: (input ligand: FMN 200 uM) 0.755 µM; under setting [4], 0.534 µM; (input ligand: none) 0.723 µM.
As to “UUAAUGAUGAUAGGAUAUACAUGAGGAAUCCUCGUAGAAGGAUCAUGACAUGAGGAUCACCCAUGUAACGCUCCGUAGAGCGUA [JL SSNG1 1.16] (Eterna round: R96, puzzle: Same State NG 1)”, the “apparent KD of MS2 coat protein” value is 0.22 µM (input ligand: FMN 200 uM), 0.094 µM under setting [4] and 0.25 µM (input ligand: none).
For the sequence “UUAAUGAUGAUAGGAUAUACAUGAGGAAUUCUCGUAGAAGGAUCAUGACAUGAGGAUCACCCAUGUAACGCUCCGUAGAGCGUA [JL SSNG1 1.15] (Eterna round: R96, puzzle: Same State NG 1)”, the “apparent KD of MS2 coat protein” value turned out to be 0.572 µM (input ligand: FMN 200 uM), 0.385 µM under setting [4] and 1.06 µM (input ligand: none).
In the same order, the values of “UUAAUGAUGUAAGGAUAUACAUGAGGAUUUCUCGUAGAAGGUACAGGACAUGAGGAUCACCCAUGUGUCGCUCAGAAGAGCGUA [Mat - Same State NG 1 - JL mod - D17] (Eterna round: R96, puzzle: Same State NG 1)” are 0.509 µM, 0.505 µM and 0.636 µM.
